The text below walks through data of US6465254, “Mutant loxP site and applications thereof” (Sumitomo Pharmaceuticals Company, Limited).

B1: mutant loxP #32 (dsDNA)
DNA 1: ATAACTTCGTATAATCTATGCTATACGAAGTTAT
DNA 2: ATAACTTCGTATAGCATAGATTATACGAAGTTAT
B2: mutant loxP #12 (dsDNA)
DNA 1: B1 DNA 1 with A14T, C16G
DNA 2: B1 DNA 2 with G19C, T21A
B3: mutant loxP #33 (dsDNA)
DNA 1: B1 DNA 1 with C16T
DNA 2: B1 DNA 2 with G19A
B4: mutant loxP #23 (dsDNA)
DNA 1: B1 DNA 1 with T15G, C16G
DNA 2: B1 DNA 2 with G19C, A20C
B5: mutant loxP #2172 (dsDNA)
DNA 1: B1 DNA 1 with T15C, C16G, G20C
DNA 2: B1 DNA 2 with C15G, G19C, A20G
B6: mutant loxP #4272 (dsDNA)
DNA 1: B1 DNA 1 with C16G, T17A, G20C
DNA 2: B1 DNA 2 with C15G, A18T, G19C
B7: mutant loxP #4371 (dsDNA)
DNA 1: B1 DNA 1 with C16G, T17G, G20A
DNA 2: B1 DNA 2 with C15T, A18C, G19C
B8: mutant loxP #4271 (dsDNA)
DNA 1: B1 DNA 1 with C16G, T17A, G20A
DNA 2: B1 DNA 2 with C15T, A18T, G19C
B9: mutant loxP #3171 (dsDNA)
DNA 1: B1 DNA 1 with C16A, G20A
DNA 2: B1 DNA 2 with C15T, G19T
B10: mutant loxP #11 (dsDNA)
DNA 1: B1 DNA 1 with A14G, C16G
DNA 2: B1 DNA 2 with G19C, T21C
B11: mutant loxP #13 (dsDNA)
DNA 1: B1 DNA 1 with A14C, C16G
DNA 2: B1 DNA 2 with G19C, T21G
B12: mutant loxP #21 (dsDNA)
DNA 1: B1 DNA 1 with T15C, C16G
DNA 2: B1 DNA 2 with G19C, A20G
B13: mutant loxP #22 (dsDNA)
DNA 1: B1 DNA 1 with T15A, C16G
DNA 2: B1 DNA 2 with G19C, A20T
B14: mutant loxP #4372 (dsDNA)
DNA 1: B1 DNA 1 with C16G, T17G, G20C
DNA 2: B1 DNA 2 with C15G, A18C, G19C
B15: mutant loxP #2371 (dsDNA)
DNA 1: B1 DNA 1 with T15G, C16G, G20A
DNA 2: B1 DNA 2 with C15T, G19C, A20C
B16: mutant loxP #2273 (dsDNA)
DNA 1: B1 DNA 1 with T15A, C16G, G20T
DNA 2: B1 DNA 2 with C15A, G19C, A20T
B17: mutant loxP #2171 (dsDNA)
DNA 1: B1 DNA 1 with T15C, C16G, G20A
DNA 2: B1 DNA 2 with C15T, G19C, A20G
B18: mutant loxP #3271 (dsDNA)
DNA 1: B1 DNA 1 with G20A
DNA 2: B1 DNA 2 with C15T
B19: mutant loxP #5373 (dsDNA)
DNA 1: B1 DNA 1 with C16G, A18C, G20T
DNA 2: B1 DNA 2 with C15A, T17G, G19C
B20: mutant loxP #6373 (dsDNA)
DNA 1: B1 DNA 1 with C16G, T19G, G20T
DNA 2: B1 DNA 2 with C15A, A16C, G19C
B21: mutant loxP #6272 (dsDNA)
DNA 1: B1 DNA 1 with C16G, T19A, G20C
DNA 2: B1 DNA 2 with C15G, A16T, G19C
B22: mutant loxP #5272 (dsDNA)
DNA 1: B1 DNA 1 with C16G, A18T, G20C
DNA 2: B1 DNA 2 with C15G, T17A, G19C
B23: mutant loxP #72 (dsDNA)
DNA 1: B1 DNA 1 with C16G, G20C
DNA 2: B1 DNA 2 with C15G, G19C
B24: mutant loxP #73 (dsDNA)
DNA 1: B1 DNA 1 with C16G, G20T
DNA 2: B1 DNA 2 with C15A, G19C
B25: mutant loxP #52 (dsDNA)
DNA 1: B1 DNA 1 with C16G, A18T
DNA 2: B1 DNA 2 with T17A, G19C
B26: mutant loxP #53 (dsDNA)
DNA 1: B1 DNA 1 with C16G, A18C
DNA 2: B1 DNA 2 with T17G, G19C
B27: mutant loxP #41 (dsDNA)
DNA 1: B1 DNA 1 with C16G, T17C
DNA 2: B1 DNA 2 with A18G, G19C
B28: mutant loxP #61 (dsDNA)
DNA 1: B1 DNA 1 with C16G, T19C
DNA 2: B1 DNA 2 with A16G, G19C
B29: mutant loxP #62 (dsDNA)
DNA 1: B1 DNA 1 with C16G, T19A
DNA 2: B1 DNA 2 with A16T, G19C
B30: mutant loxP #63 (dsDNA)
DNA 1: B1 DNA 1 with C16G, T19G
DNA 2: B1 DNA 2 with A16C, G19C
B31: mutant loxP #51 (dsDNA)
DNA 1: B1 DNA 1 with C16G, A18G
DNA 2: B1 DNA 2 with T17C, G19C
B32: mutant loxP #31 (dsDNA)
DNA 1: B1 DNA 1 with C16A
DNA 2: B1 DNA 2 with G19T
B33: mutant loxP #43 (dsDNA)
DNA 1: B1 DNA 1 with C16G, T17G
DNA 2: B1 DNA 2 with A18C, G19C
B34: mutant loxP #42 (dsDNA)
DNA 1: B1 DNA 1 with C16G, T17A
DNA 2: B1 DNA 2 with A18T, G19C
B35: mutant loxP #2373 (dsDNA)
DNA 1: B1 DNA 1 with T15G, C16G, G20T
DNA 2: B1 DNA 2 with C15A, G19C, A20C
B36: mutant loxP #3272 (dsDNA)
DNA 1: B1 DNA 1 with G20C
DNA 2: B1 DNA 2 with C15G
B37: mutant loxP #3373 (dsDNA)
DNA 1: B1 DNA 1 with C16T, G20T
DNA 2: B1 DNA 2 with C15A, G19A
B38: mutant loxP #3372 (dsDNA)
DNA 1: B1 DNA 1 with C16T, G20C
DNA 2: B1 DNA 2 with C15G, G19A

Positions count from the first letter of the chain named.

T1 sequence (P06956 whole entry, one chain of several): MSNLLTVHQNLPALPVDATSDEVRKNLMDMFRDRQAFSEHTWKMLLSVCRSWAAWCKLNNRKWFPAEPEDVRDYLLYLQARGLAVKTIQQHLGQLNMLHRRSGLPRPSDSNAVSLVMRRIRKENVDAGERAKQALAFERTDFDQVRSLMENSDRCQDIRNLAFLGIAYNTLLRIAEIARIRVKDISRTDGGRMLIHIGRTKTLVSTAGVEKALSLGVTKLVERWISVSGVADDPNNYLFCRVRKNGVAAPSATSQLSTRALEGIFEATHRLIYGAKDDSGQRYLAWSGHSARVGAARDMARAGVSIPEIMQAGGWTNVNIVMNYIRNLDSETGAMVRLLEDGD

The first series concerns the target T1, Cre recombinase (UniProt P06956 P06956:1-343). Briefly: self x self; intermediate 6. The settings on record: tags: expressed from recombinant adenovirus AxCANCre in 293 cells. As to the method:
(§1) Substrate DNA (1 μg) prepared in (3) and cell extract containing Cre (10 μl) prepared in (1) were incubated at 37° C. for 30 min in a 50 μl volume of buffer containing 50 mM Tris-HCl (pH 7.5)/10 mM MgCl2/1 mg/ml bovine serum albumin/1 mM phenylmethylsulfonyl fluoride (PMSF)/5 μg/ml aprotinin. After completion of the reaction, 45 μl of TE buffer (pH 8.0) and 5 μl of EDTA solution (pH 8.0) were added to the reaction mixture, extracted with phenol/chloroform and with chloroform, followed ethanol precipitation. The recovered DNA was dissolveld in 30 μl of TE buffer (pH 8.0) containing RNase A (20 μg/ml). Half volume thereof was digested with restriction enzyme BsaHI. The DNA bands detected by ethidium bromide (EtBr) staining after agarose gel electrophoresis, were analyzed.
(§2) Before recombination mediated by Cre, restriction enzyme BsaHI digestion of linear substrate DNA (approx. 4.1 kb) generates four bands of 2.7 kb, 610 bp, 380 bp and 360 bp. On the other hand, as a result of recombination of substrate DNA mediated by Cre, a circular DNA of approx. 4.0 kb containing one mutant loxP, and a linear DNA of approx. 50 bp consisting of only mutant loxP, are produced. Digestion of these DNA with restriction enzyme BsaHI generates four bands of 2.7 kb, 920 bp, 380 bp and 50 bp (refer to FIG. 6).
B1: the activity was determined as 3 grade 0-9 final product.

On to B2, for which the activity was 3 grade 0-9 final product.

In the case of B3, the activity turned out to be 6 grade 0-9 final product.

With B4, the activity came to 5 grade 0-9 final product.

The next series deals with T1, Cre recombinase. In words: self x self; intermediate 4. The settings on record: tags: expressed from recombinant adenovirus AxCANCre in 293 cells.
For B5, the activity is 2 grade 0-9 final product.

As to B6, the activity is 1 grade 0-9 final product.

Take B7: the activity amounted to 2 grade 0-9 final product.

Take B8: the activity worked out at 2 grade 0-9 final product.

As for B9, the activity is 7 grade 0-9 final product.

A further series has as its target T1, Cre recombinase. Briefly: self x self; intermediate 4. The settings on record: tags: expressed from recombinant adenovirus AxCANCre in 293 cells. The source holds these as a separate data set. As to the method:
as §1, §2
As for B10, the activity was 2 grade 0-9 final product.

For the molecule B11, the activity was 3 grade 0-9 final product.

Consider B12, for which the activity is 5 grade 0-9 final product.

With B13, the activity was determined as 5 grade 0-9 final product.

The next series has as its target T1, Cre recombinase. Briefly: self x self; intermediate 3. The settings on record: tags: expressed from recombinant adenovirus AxCANCre in 293 cells.
In the case of B14, the activity was 2 grade 0-9 final product.

For the molecule B15, the activity was found to be 2 grade 0-9 final product.

With B16, the activity amounted to 4 grade 0-9 final product.

With B17, the activity is 3 grade 0-9 final product.

For B18, the activity is 4 grade 0-9 final product.

The next series has as its target T1, Cre recombinase. In words: self x self; intermediate 1. The settings on record: tags: expressed from recombinant adenovirus AxCANCre in 293 cells.
Take B19: the activity was found to be 2 grade 0-9 final product.

As for B20, the activity stood at 2 grade 0-9 final product.

B21: the activity is 2 grade 0-9 final product.

Consider B22, for which the activity is 4 grade 0-9 final product.

A further series deals with T1, Cre recombinase. In words: self x self; intermediate 3. The settings on record: tags: expressed from recombinant adenovirus AxCANCre in 293 cells. This is another data set of the same source. As to the method: as §1, §2
B23: the activity amounted to 7 grade 0-9 final product.

Regarding B24, the activity turned out to be 1 grade 0-9 final product.

A further series concerns the target T1, Cre recombinase. Briefly: self x self; intermediate 1. The settings on record: tags: expressed from recombinant adenovirus AxCANCre in 293 cells. This is another data set of the same source. As to the method: as §1, §2
For B25, the activity was 9 grade 0-9 final product.

As to B26, the activity worked out at 8 grade 0-9 final product.

As to B27, the activity came out at 7 grade 0-9 final product.

Turning to B28, the activity worked out at 8 grade 0-9 final product.

As to B29, the activity was determined as 8 grade 0-9 final product.

B30: the activity was determined as 9 grade 0-9 final product.

For B31, the activity came to 9 grade 0-9 final product.

A further series deals with T1, Cre recombinase. Briefly: self x self; intermediate 5. The settings on record: tags: expressed from recombinant adenovirus AxCANCre in 293 cells. As to the method:
as §1, §2
For B32, the activity came out at 7 grade 0-9 final product.

In the case of B33, the activity amounted to 6 grade 0-9 final product.

B34: the activity was 6 grade 0-9 final product.

The next series has as its target T1, Cre recombinase. In words: self x self; intermediate 6. The settings on record: tags: expressed from recombinant adenovirus AxCANCre in 293 cells. This is another data set of the same source.
B35: the activity worked out at 1 grade 0-9 final product.

In the case of B36, the activity was 2 grade 0-9 final product.

With B37, the activity came to 2 grade 0-9 final product.

Take B38: the activity is 1 grade 0-9 final product.
